The target of one series is CCKBR (Homo sapiens) (UniProt P32239). Particulars: cited from earlier work.
The target in series [1] is T1, CCKBR N-terminal peptide BR5-21 (human, UniProt P32239 5-21).
T1 chain: KLNRSVQGTGPGPGASL
The series can be described thus: not stated in material; Kd assay buffer and method not given in material; SELEX peptide-bead incubation 60 min at 37 C.

Read-outs that look alike come from different tables or passages of the source.

The Kd is the constant that tells how readily two partners part at equilibrium.

Chain of CCKBR (Homo sapiens) (P32239 whole entry): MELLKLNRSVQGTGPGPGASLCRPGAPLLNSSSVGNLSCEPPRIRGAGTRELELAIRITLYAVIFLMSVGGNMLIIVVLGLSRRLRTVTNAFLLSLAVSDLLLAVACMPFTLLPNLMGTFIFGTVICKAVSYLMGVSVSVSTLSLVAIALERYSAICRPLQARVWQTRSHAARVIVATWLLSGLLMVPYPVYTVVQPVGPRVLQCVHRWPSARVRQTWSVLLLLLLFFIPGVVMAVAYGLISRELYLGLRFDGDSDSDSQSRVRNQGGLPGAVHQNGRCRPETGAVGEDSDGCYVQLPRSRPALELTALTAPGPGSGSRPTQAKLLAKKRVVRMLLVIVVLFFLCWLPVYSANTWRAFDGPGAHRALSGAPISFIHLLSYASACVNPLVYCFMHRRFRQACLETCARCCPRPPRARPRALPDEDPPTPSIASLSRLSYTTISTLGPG

With gastrin (from UniProt P01350), the Kd in the series with CCKBR (Homo sapiens) is 1 nM.
For CATGGTGCAGGTGTGGCTGGGATTCATTTGCCGGTGCTGGTGCGTCCGC (ssDNA) [AP1153 truncated (49 nt)], the Kd in series [1] was 0.206 nM.

B1: AP1153 (66 nt) (ssDNA)
DNA: CATGGTGCAGGTGTGGCTGGGATTCATTTGCCGGTGCTGGTGCGTCCGCGGCCGCTAATCCTGTTC
With B1, the Kd in series [1] (Mfold-predicted folded structure) was 0.0155 nM.

These data come from publication PMC5312616, “A Cholecystokinin B Receptor-Specific DNA Aptamer for Targeting Pancreatic Ductal Adenocarcinoma”.
